The target of the test is tumor necrosis factor-related apoptosis-inducing ligand (TRAIL) (human) (UniProt P50591). Briefly: non-reducing SDS-PAGE.

Regarding “tumor necrosis factor-related apoptosis-inducing ligand (TRAIL) (from UniProt P50591 1-281)”, the percent dimer amounted to 27.2%, the percent monomer came to 70.1% and the percent trimer was determined as 2.62%.

For the origin of these results see PMC3868960.
